Measurements from US20230242902A1, “A HIGHLY ERROR-PRONE […] R[…] FOR TARGETED CONTINUOUS EVOLUTION IN VIVO” (The Regents of the University of California, priority 2017, published 2023).
Substitutions are numbered along the chain they refer to. Names may count otherwise.

B1: I301K: TP-DNAP1 variant (protein)
chain: MDYKDKALNDLRNVYADFDSLPLDFRQILIKDRATLLQKEDVEKKILERQEDAKKYAEYLKQSEIPERISLPNIKRHKGVSISFEETSEDMVLEPRPFIFDGLNIRCFRRETIFSLKNKILNMVKESSSFKNVSRQSVSFMYFKIFNKGKVIASTKSVNIYEDKIDERLEDLCNNFDDVLKKIIDVTYGYESLFVSETYSYVIFYAKSIYFPQPRCVNNWGNNIPNILTFDSFKLFTANKNNVSCIKQCSRFLWQKDFNTLEEMIEYKNGNICIVTPQLHINDVRDIKSFNDIRLYSESPKKTFSVIDNTITYLFYFKEHLGVIFNITKSRHDRRVTKFSPLSKFSDVKNITVCFDIESYFDPEKESNQVNIPFICCASIIYNKVIGNIVDFEGRDCVAQMIEYVVDICGELNISSVELIAHNGGGYDFHYILSSMYNPAAIKNILIRNNSFISFNFAHDGVKFSVKDSYSFLLCSLANASKAFLNEETFKKTDFPHHDLKTADDLYKVYKEWSSVNTEINHVVEKEKLLITSEHIVNFTKNDKSKTLIEWSKDYCRNDVLVLSKVWLEFKNAVEDIFNCELVDQTMTLAGLSYKLFQANMPFDVELRHPNKEDYFNMREALIGGRCISVNGIYKDVLCLDVKSLYPASMAFYDQPYGSFKRVSSRPKDELGIYYVRVTPNRNNKSNFFPIRSHNKITYNNFEESTYIAWYTNVDIDIGLSEGHNIEYIPFDSYGNIGYSWSKKGKIFEKYIKDVLYKLKIKYEKQNNKVKRNVIKIIMNSLWGKFAQKWVNFEYFIKSEDDIDFESEEAYKIWDTDFMLIKKIKESTYSSKPIQNGVFTLSWARYHMKSIWDAGAKEGAECIYSDTDSIFVHKEHFKKNAKFMLNGLKVPIIGSEVGQLELECEFDKLLCAGKKQYMGFYTYFQDGKPCIKEKKRFKGIPSNYIIPELYAHLLSGADKEAKIQFLKFRREWGSVKGYIENKTVKAT
B2: D308Q: TP-DNAP1 variant (protein)
chain: B1 chain with K301I, D308Q
B3: T303L: TP-DNAP1 variant (protein)
chain: B1 chain with K301I, T303L
B4: T310W: TP-DNAP1 variant (protein)
chain: B1 chain with K301I, T310W
B5: T310E: TP-DNAP1 variant (protein)
chain: B1 chain with K301I, T310E
B6: I301M: TP-DNAP1 variant (protein)
chain: B1 chain with K301M
B7: S305N: TP-DNAP1 variant (protein)
chain: B1 chain with K301I, S305N
B8: I311N: TP-DNAP1 variant (protein)
chain: B1 chain with K301I, I311N
B9: F304R: TP-DNAP1 variant (protein)
chain: B1 chain with K301I, F304R
B10: T310F: TP-DNAP1 variant (protein)
chain: B1 chain with K301I, T310F
B11: T303H: TP-DNAP1 variant (protein, listed as Kluyveromyces lactis)
chain: B1 chain with K301I, T303H
B12: T303W: TP-DNAP1 variant (protein)
chain: B1 chain with K301I, T303W
B13: T310D: TP-DNAP1 variant (protein)
chain: B1 chain with K301I, T310D
B14: N309C: TP-DNAP1 variant (protein)
chain: B1 chain with K301I, N309C
B15: I301S: TP-DNAP1 variant (protein)
chain: B1 chain with K301S
B16: I311A: TP-DNAP1 variant (protein)
chain: B1 chain with K301I, I311A
B17: F304A: TP-DNAP1 variant (protein)
chain: B1 chain with K301I, F304A
B18: K302A: TP-DNAP1 variant (protein)
chain: B1 chain with K301I, K302A
B19: S305G: TP-DNAP1 variant (protein)
chain: B1 chain with K301I, S305G
B20: T310H: TP-DNAP1 variant (protein)
chain: B1 chain with K301I, T310H
B21: F304Y: TP-DNAP1 variant (protein)
chain: B1 chain with K301I, F304Y
B22: T310N: TP-DNAP1 variant (protein)
chain: B1 chain with K301I, T310N
B23: I307L: TP-DNAP1 variant (protein)
chain: B1 chain with K301I, I307L
B24: T303M: TP-DNAP1 variant (protein)
chain: B1 chain with K301I, T303M
B25: I301V: TP-DNAP1 variant (protein)
chain: B1 chain with K301V
B26: N309K, I311G: TP-DNAP1 variant (protein)
chain: B1 chain with K301I, N309K, I311G
B27: I301Y: TP-DNAP1 variant (protein)
chain: B1 chain with K301Y

Test system: p1
Assay: p1 copy number by p1-encoded mKate2 fluorescence
Type: cell-based, S. cerevisiae
Conditions: OR-Y24, measured in triplicate
Procedure, shortened: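 Read-out is mKate2 fluorescence of saturated OR-Y24 cultures, measured by flow cytometry or by plate reader with OD600 normalization. Flow values were converted by a qPCR-derived linear calibration; plate values were scaled to a w.t. TP-DNAP1 control.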

Row | Molecule | Mean fold-increase over w.t. (p1 copy number) [fold]
1 | B1 | 2.71
2 | B2 | 2.15
3 | B3 | 2.41
4 | B4 | 2.48
5 | B5 | 2.37
6 | B6 | 2.76
7 | B7 | 2.3
8 | B8 | 2.55
9 | B9 | 3.49
10 | B10 | 2.66
11 | B11 | 2.3
12 | B12 | 2.96
13 | B13 | 2.64
14 | B14 | 2.25
15 | B15 | 2.29
16 | B16 | 2.19
17 | B17 | 2.14
18 | B18 | 1.88
19 | B19 | 2.53
20 | B20 | 2.57
21 | B21 | 2.41
22 | B22 | 2.83
23 | B23 | 2.76
24 | B24 | 2.5
25 | B25 | 2.53
26 | B26 | 2.2
27 | B27 | 3.28
